Laboratory results published in doi:10.1101/2021.01.04.425348 (bioRxiv, 2021).

Target: the molecule itself
Assay: high-speed atomic force microscopy

B1: PDI I289A (enzyme)
chain: not shown
- stoichiometry N: 2
